The text below walks through data of PMC2941195.

Substrate in this data set: C=CC(C)(C)c1[nH]c2cc(O)ccc2c1C[C@@H]1NC(=O)[C@@H]2CCCN2C1=O
The data set can be described thus: Michaelis-Menten kinetics, HPLC product detection. The format is biochemical, Aspergillus sp. MF297-2. As to conditions: normal prenylation at C-7 with DMAPP, 5 mM MgCl2, 50 mM Tris-Cl pH 7.5.

B1: NotC (Aspergillus sp. MF297-2) (protein)
chain: MAIEEKSTSAEPGPYDALSRFSSLTGEDDRKWWEHTGPVLEKVMRDSGYELQSQYIYLYFVQQHLIPYLGKFPTRGQDDHRWQSNLTPYKVPYELSWNVSHKVVRISWDPVCDASGTENDAFNKKAIHDCTRQLAELDSTVILDRYRLLHKDLVITDEEEQQLLRRDVLPKSGRGQHNLAVDFQEGGITLKVYFYPYMKFLATGTPIEELFFSAIEKLRIADIDEAVGMLKCFLSPKSDDGKPSVDEKVFPSLLACDLCDPSKSRIKYYVIDKWVKWERIANLWTIGGRRLEDPYCAKGLALLKELWDLLAIPEGDRGDIWPNLVLGQPPTHLMTTIANYTLSPASRFPEPQVYLTTFGLNDMAIIDALTAFYERVGFTDMAKSYKKNVQSYYPNLDLNQTNWVHEAVSFSYRNSKPYLSVYYSPF
With B1, the Michaelis constant (Km) was determined as 2.64 ± 0.33 µM and the kcat worked out at 1.01 ± 0.0317 s⁻¹.

In general, Km refers to the substrate concentration at which the rate is half of its maximum. Broadly, the kcat is the maximal rate divided by the concentration of active sites.
